Data from the Human Domainome abundance scans (Beltran et al. 2025).

B1: Apoptosis-associated speck-like protein containing a CARD, residues 114 to 194; numbered along this chain, Q9ULZ3 (parent)
chain: FIDQHRAALIARVTNVEWLLDALYGKVLTDEQYQAVRAEPTNPSKMRKLFSFTPAWNWTCKDLLLQALRESQSYLVEDLER

Variants of: B1
Test: abundance fitness (aPCA) (normalised: wild type 0, dead -1); higher = more abundant; growth selection in yeast, the domain comes from the species named
Settings: Homo sapiens

Abundance fitness: each site, then its substitutions
L49: D -0.914 | E -0.979 | F -0.811 | G -0.79 | H -0.664 | I -0.444 | M -0.888 | N -0.209 | P -0.73 | S -0.798 | V -0.837 | Y -0.846
F50: C -0.937 | D -1.06 | E -0.799 | H -0.948 | I -0.418 | K -1.02 | L 0.182 | M 0.113 | N -0.775 | P -0.607 | Q -0.871 | R -0.81 | S -0.822 | V -0.536 | W -0.693 | Y 0.015
S51: A -0.422 | C -0.429 | D -0.169 | E -0.012 | F -0.633 | G -0.587 | I -0.904 | K -0.96 | L -0.938 | M -0.321 | N -0.806 | P -0.796 | Q -0.205 | R -0.839 | T -0.141 | W -0.849 | Y -0.843
F52: A -0.732 | C -0.966 | D -0.996 | G -0.943 | I -0.53 | K -1 | M -0.454 | N -0.836 | P -0.979 | Q -0.427 | R -0.824 | S -0.948 | T -1.03 | V -0.649 | W -0.696 | Y -0.105
T53: C -0.347 | D -0.855 | E -0.126 | F -0.342 | G -0.663 | H -0.394 | I -0.055 | K -0.957 | L 0.071 | M 0.015 | P -1.03 | R -0.466 | V 0.072 | Y 0.11
P54: A 0.045 | C -0.254 | D 0.132 | E 0.078 | F 0.057 | G -0.017 | H -0.196 | I -0.189 | K 0.047 | L -0.328 | M -0.292 | Q -0.064 | R -0.026 | S 0.044 | T 0 | V -0.197 | W -0.084 | Y -0.166
A55: D -0.061 | E 0.087 | F -0.36 | G 0.082 | H -0.005 | I -0.286 | K 0.016 | M -0.162 | N 0.181 | P -0.325 | Q -0.062 | S 0.107 | T -0.061 | V -0.416 | Y -0.077
W56: A -0.899 | C -0.957 | D -0.626 | E -1.13 | F -0.506 | G -0.838 | H -0.371 | I -0.434 | K -0.684 | L -0.568 | M -0.108 | N -0.83 | Q -0.598 | R -0.574 | S -0.813 | T -0.74 | V -0.694 | Y -1.01
N57: C -0.269 | D 0.092 | E -0.32 | H -0.279 | I -0.311 | K -0.492 | L -0.178 | M -0.399 | P -0.233 | R -0.731 | S 0.018 | T -0.106 | V -0.431 | W -0.468 | Y -0.852
W58: A 0.357 | C 0.047 | D 0.453 | E 0.376 | F 0.105 | G 0.205 | H 0.289 | I -0.217 | K 0.19 | M 0.167 | N 0.105 | P 0.145 | Q 0.174 | R 0.234 | S 0.306 | T 0.319 | V 0.174 | Y 0.203
T59: A 0.109 | C -0.135 | D -0.007 | E 0.269 | F -0.023 | G -0.019 | H 0.07 | I -0.243
